B1: GLP methyltransferase domain (aa 1001-1266), wild type [human] / itself (parent)
chain: DRPSPVERIVSRDIARGYERIPIPCVNAVDSEPCPSNYKYVSQNCVTSPMNIDRNITHLQYCVCIDDCSSSNCMCGQLSMRCWYDKDGRLLPEFNMAEPPLIFECNHACSCWRNCRNRVVQNGLRARLQLYRTRDMGWGVRSLQDIPPGTFVCEYVGELISDSEADVREEDSYLFDLDNKDGEVYCIDARFYGNVSRFINHHCEPNLVPVRVFMAHQDLRFPRIAFFSTRLIEAGEQLGFDYGERFWDIKGKLFSCRCGSPKCRHS

In this assay the parent is B1. Nature of the assay: native mass spectrometry (nESI-MS). Conditions: with itself; parent: 1; read off a plot.
Turning to chain 1 C73Y, the ratio to parent was 0.34.

Source of the values: article PMC13462943.
